Assays:
Assay type in all cases: cell-based, human
[1] = test system: hfRPE cells; test: JC-1 staining of mitochondrial membrane potential
Protocol: Mitochondrial membrane potential change (w) was assessed in live hfRPE cells using the lipophilic cationic probe 5,5′,6,6′-tetrachloro-1,1′3,3′-tetraethylbenzimidazol-carbocyanine iodide (JC-1) following the manufacturer's instructions and as described in Voloboueva, L. A., et al., Invest Ophthalmol Vis Sci, 2005, 46, 4302-4310, incorporated herein by reference in its entirety. Confluent monolayers of hfRPE were treated with different concentrations of IFNγ (0.5, 5, 50 ng/ml) for 24, 48, or 72 hours and then incubated with JC-1 solution for 30 minutes at 37° C. Fluorescence was evaluated with a Zeiss Axiovert 25 inverted microscope.

[2] = test system: hfRPE cells; test: BrdU incorporation assay, hfRPE proliferation
Protocol: BrdU incorporation was performed as described in Li, R. et al., 2007, Invest Ophthalmol Vis Sci, 48, 5722-5732, incorporated by reference in its entirety herein. IFNγ, TNFα, and IL-1β were obtained from Peprotech, Rocky Hill, N.J., and Universal Type I Interferon (cat: 11200-1) or human interferon beta la were from PBL biomedical laboratories (New Brunswick, N.J.). Cumulative effects were measured by adding VEGF165, EGF and bFGF (Peprotech), and PDGF-BB (R & D Systems) with IFNγ. Anti-human IFNγ R1 blocking antibody (R & D Systems, Minneapolis, Minn.), JAK inhibitor I, AG490, or JAK3 inhibitor II (EMD Biosciences, Gibbstown, N.J.) was added to the cells one hour prior to the addition of IFNγ. SFM was used as the negative control and SFM supplemented with 5% serum was used as positive control. After treatment for 48 hours, RPE cells were incubated with BrdU for 24 hours. The proliferation rate was evaluated using a Cell proliferation ELISA BrdU Kit (Roche, Ind.). Quadruplicate wells were used for each condition and the experiments were repeated at least two times using cell cultures from different donors. Cell viability was evaluated using a Live/Dead Viability/Cytotoxicity Kit (Invitrogen).

[3] = test system: hfRPE monolayers; test: fluid transport (JV, TEP, RT) across hfRPE monolayers in modified Üssing chamber
Text: Confluent monolayers of hfRPE cultured on transwells were mounted in a modified Üssing chamber and transepithelial water flow measurements (JV) were made with a capacitance probe technique as described previously in Maminishkis, A., et al., Invest Ophthalmol Vis Sci, 2006, 47, 3612-3624; Shi, G., et al., Invest Ophthalmol Vis Sci, 2008, 49, 4620-4630; Edelman, J. L., et al., Invest Ophthalmol Vis Sci, 1991, 32, 3033-3040; Jiang, C., et al., Science, 1993, 262, 424-427; and Maminishkis, A., et al., Invest Ophthalmol Vis Sci, 2002, 43, 3555-3566, each incorporated herein by reference in its entirety.
Tissue viability was ascertained by recording transepithelial potential (TEP) and total tissue resistance (RT). It should be noted that the solution composition changes in this chamber were relatively slow (≈1-2 chamber volumes per minute) and the data sampling rate was once per minute, more than two orders of magnitude slower than the sampling rate in the electrophysiology chamber (see below). Therefore it was not possible to record fast changes, in seconds or minutes, in JV, TEP, or RT. After addition of IFNγ to the apical or basal baths, steady-state JV, TEP, and RT were recorded for 20-30 minutes. In control experiments, successive additions of IFNγ were made to test for the repeatability and reversibility of responses. To block IFNγ effects, RPE cells were incubated for 30-60 minutes with a blocking antibody against IFNγ R1, JAK inhibitor I, PKA inhibitors (H-89, EMD Biosciences; RP-8-Br-cAMPS, Sigma-Aldrich), nitric oxide synthase inhibitor (aminoguanidine hydrochloride, Sigma-Aldrich), P38 MAPK inhibitors (SB203580 or SB20290), or CHX. Other components of this signaling pathway were studied using P38 MAPK inhibitors (SB203580 and SB202190). Relatively specific Cl channel inhibitors, CFTRinh-172 or DIDS (EMD Biosciences, La Jolla, Calif.), were used to block cAMP or Ca^2+-activated Cl channels; experiments with CFTRinh-172 were performed as described in Muanprasat, C., et al., J Gen Physiol, 2004, 124, 125-137, incorporated herein by reference in its entirety. In chronic experiments, paired hfRPE tissues with matched RT values were incubated for 4-24 hours with IFNγ or CHX. The subsequent changes in JV, RT, and TEP were measured in Ringer's solution or serum free cell culture media as previously described in Shi, G., et al., Invest Ophthalmol Vis Sci, 2008 and Maminishkis, A., et al., Invest Ophthalmol Vis Sci, 2006, 47, 3612-3624, each incorporated herein by reference in its entirety. Intracellular levels of NO were elevated with 1-Hydroxy-2-oxo-3-(3-aminopropyl)-3-isopropyl-1-triazene (NOC-5, Enzo Life Sciences, Plymouth, Pa.). 8-Br-cGMP was purchased from Sigma-Aldrich.

B1: IFNγ: pleiotropic cytokine produced by T- and NK-cells; obtained from Peprotech (protein, UniProt P01579 24-161, looked up)
Interferon gamma: QDPYVKEAENLKKYFNAGHSDVADNGTLFLGILKNWKEESDRKIMQSQIVSFYFKLFKNFKDDQSIQKSVETIKEDMNVKFFNSNKKKRDDFEKLTNYSVTDLNVQRKAIHELIQVMAELSPAAKTGKRKRSQMLFRG
[1]; 24 or 48 hour time points
  mitochondrial membrane potential (JC-1): no significant differences
[1]; IFNγ 0.5, 5, 50 ng/ml, 72 hours
  mitochondrial membrane potential (JC-1 aggregate fluorescence): dose-dependent decrease
[2]; 0.5-80 ng/ml
  effect on hfRPE proliferation (BrdU incorporation): strong inhibitory effect
[2]; IFNγ 5 ng/ml
  effect on hfRPE proliferation induced by bFGF, PDGF-BB, VEGF: significantly inhibited
[2]; IFNγ alone 5 ng/ml, 5% FBS or 0% FBS
  effect on hfRPE cell proliferation: significantly inhibited
[2]; other experiments, data not shown
  concentration as low as which hfRPE proliferation was inhibited: 0.02 ng/mL
[3]; 10 experiments, from 12.9±1.6, mean±s.e.m.
  mean JV after IFNγ: 20.5±3.1 μl·cm^−2·hr^−1
[3]; IFNγ 5 ng/ml apical and basal, 24 hours
  TEP after 24 hour IFNγ: no significant TEP changes
[3]; IFNγ 5 ng/ml apical and basal, 24 hours, control 7.6±1.5, 5 experiments
  mean JV after 24 hour IFNγ: 15.2±2.0 μl·cm^−2·hr^−1
[3]; IFNγ 5 ng/ml basal bath
  cell viability as measured by TEP and RT: no apparent changes
[3]; IFNγ 5 ng/ml in the basal bath, FIG. 14A
  increase in JV: ~8.6 μl·cm^−2·hr^−1
[3]; IFNγ 5 ng/ml, 24 hours, from 592±80, n=5
  RT after 24 hour IFNγ: 356±139 Ω·cm^2
[3]; IFNγ added to the apical bath
  effect on JV: no significant effect
[3]; at 24 hours
  IFNγ-induced resistance change: ≈ 2 fold
  mean IFNγ-induced resistance change: ≈ 240 Ω·cm^2
[3]; continued presence of Rp-8-Br-cAMPS 2 μM, six experiments
  JV after subsequent addition of IFNγ: 8.4±1.7 μl·cm^−2·hr^−1
[3]; in presence of H-89, four experiments
  JV after subsequent addition of IFNγ: 14.7±4.7 μl·cm^−2·hr^−1
[3]; nine experiments (P38 series), from 7.5 ±1.9
  mean JV after IFNγ: 16.5±2.2 μl·cm^−2·hr^−1
[3]; three experiments (H-89 series), from 8.4±1.6
  mean JV after IFNγ: 20.1±0.2 μl·cm^−2·hr^−1
